Source: article PMC9458440, “Cryo-EM structure of the Smc5/6 holo-complex” (Nucleic Acids Research, 2022)

Legend:
Experiment in all cases: cryo-EM structure; BS3-crosslinked six-subunit holo-complex, apo / non-liganded; fractions from Superose 6 diluted to 20 mM HEPES.NaOH pH 7.5, 50 mM NaCl, 0.5 mM TCEP, 0.1 mg/ml; maps at 10.8 Å (holo-complex), 8.53 Å (hinge/arm) and 6.5 Å (head-only); pseudo-atomic model built from homology and AlphaFold models
Conditions in all cases: both partners purified
[1] = molecular target: T1, Smc5 (Walker B mutant E1015Q), subunit of the S. cerevisiae Smc5/6 holo-complex (S. cerevisiae, UniProt Q08204 1-1093, E1015Q)
T1 construct: Smc5, Saccharomyces cerevisiae; the model holds amino acids 35-390, 394-882, 884-1068; The complex was crosslinked with BS3; also called κ-SMC; source: recombinant, expressed in insect cells, purified as holo-complex (Superose 6 SEC), BS3-crosslinked
T1 sequence: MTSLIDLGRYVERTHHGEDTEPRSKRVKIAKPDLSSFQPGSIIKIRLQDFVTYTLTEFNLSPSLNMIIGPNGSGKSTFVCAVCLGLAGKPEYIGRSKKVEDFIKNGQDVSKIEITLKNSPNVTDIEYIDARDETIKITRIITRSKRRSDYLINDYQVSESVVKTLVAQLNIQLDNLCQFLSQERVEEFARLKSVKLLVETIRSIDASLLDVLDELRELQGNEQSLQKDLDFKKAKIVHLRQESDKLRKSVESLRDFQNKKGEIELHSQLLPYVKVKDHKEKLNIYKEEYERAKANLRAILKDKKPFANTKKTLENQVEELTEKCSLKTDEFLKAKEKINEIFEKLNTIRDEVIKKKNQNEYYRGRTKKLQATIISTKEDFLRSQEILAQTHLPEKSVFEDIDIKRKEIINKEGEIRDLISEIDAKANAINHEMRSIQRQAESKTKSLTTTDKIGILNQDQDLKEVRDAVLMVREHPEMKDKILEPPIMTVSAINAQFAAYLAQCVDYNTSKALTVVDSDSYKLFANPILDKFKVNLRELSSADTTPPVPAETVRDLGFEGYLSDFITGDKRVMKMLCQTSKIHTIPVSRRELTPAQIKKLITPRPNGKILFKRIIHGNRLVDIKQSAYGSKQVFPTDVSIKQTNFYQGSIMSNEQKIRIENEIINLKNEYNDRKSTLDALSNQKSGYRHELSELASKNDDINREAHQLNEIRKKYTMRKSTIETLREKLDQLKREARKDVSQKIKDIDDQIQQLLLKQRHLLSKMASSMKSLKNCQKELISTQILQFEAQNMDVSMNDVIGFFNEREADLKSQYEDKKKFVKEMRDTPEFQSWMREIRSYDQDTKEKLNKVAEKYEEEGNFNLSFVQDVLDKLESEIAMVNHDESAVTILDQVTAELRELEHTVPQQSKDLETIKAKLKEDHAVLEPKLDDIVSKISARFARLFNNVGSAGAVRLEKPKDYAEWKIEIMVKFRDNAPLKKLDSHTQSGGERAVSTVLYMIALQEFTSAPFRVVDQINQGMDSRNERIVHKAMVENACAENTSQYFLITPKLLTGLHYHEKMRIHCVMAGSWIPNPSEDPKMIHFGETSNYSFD

[2] = molecular target: T2, Nse1, subunit of the S. cerevisiae Smc5/6 holo-complex (S. cerevisiae, UniProt Q07913 1-336)
T2 construct: Nse1, Saccharomyces cerevisiae; the model holds amino acids 11-336; also called KITE subunit; source: recombinant, expressed in insect cells, purified as holo-complex (Superose 6 SEC), BS3-crosslinked
T2 sequence: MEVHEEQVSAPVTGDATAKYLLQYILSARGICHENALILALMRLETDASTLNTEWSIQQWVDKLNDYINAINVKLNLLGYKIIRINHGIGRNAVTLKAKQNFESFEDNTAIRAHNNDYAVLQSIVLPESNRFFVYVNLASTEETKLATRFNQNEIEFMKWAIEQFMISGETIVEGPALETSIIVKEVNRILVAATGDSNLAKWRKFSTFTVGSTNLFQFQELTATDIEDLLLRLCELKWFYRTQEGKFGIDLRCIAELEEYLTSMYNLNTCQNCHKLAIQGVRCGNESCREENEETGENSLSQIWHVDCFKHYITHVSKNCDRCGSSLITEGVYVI

[3] = molecular target: T3, Nse4 with HaloTag, kleisin subunit of the S. cerevisiae Smc5/6 holo-complex (S. cerevisiae, UniProt P43124 1-402)
T3 construct: Nse4, Saccharomyces cerevisiae; the model holds amino acids 40-124, 184-202, 213-245, 283-402; Density of the HaloTag attached to Nse4 was removed by particle subtraction, so the tag was on the protein on the grid; its end is told only for the yeast strain (C-terminal), not for the recombinant protein; source: recombinant, expressed in insect cells, purified as holo-complex (Superose 6 SEC), …
T3 sequence: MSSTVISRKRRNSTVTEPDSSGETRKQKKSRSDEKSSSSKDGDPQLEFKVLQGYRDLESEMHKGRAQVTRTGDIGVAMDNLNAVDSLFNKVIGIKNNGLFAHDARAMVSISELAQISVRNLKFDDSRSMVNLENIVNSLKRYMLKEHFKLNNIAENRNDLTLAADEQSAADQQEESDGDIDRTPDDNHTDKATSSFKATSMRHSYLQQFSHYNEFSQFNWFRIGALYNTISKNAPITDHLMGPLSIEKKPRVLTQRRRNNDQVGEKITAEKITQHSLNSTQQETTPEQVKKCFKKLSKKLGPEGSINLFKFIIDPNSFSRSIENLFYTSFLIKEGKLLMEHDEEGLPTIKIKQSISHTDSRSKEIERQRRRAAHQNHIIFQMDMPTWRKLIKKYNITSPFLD

Measured: binding result

B1: Nse3, subunit of the S. cerevisiae Smc5/6 holo-complex (natural protein)
chain: MSSIDNDSDVDLTEDLAVAKIVKENPVARKMVRYILSRGESQNSIITRNKLQSVIHEAAREENIAKPSFSKMFMDINAILYNVYGFELQGLPSKNNMNAGGNGSNSNTNKSMPEPLGHRAQKFILLNNVPHSKNFDDFKILQSAHTYEELIVTGEYIGDDIASGTSNTLESKLSTDRDLVYKGVLSVILCIVFFSKNNILHQELIKFLETFGIPSDGSKIAILNITIEDLIKSLEKREYIVRLEEKSDTDGEVISYRIGRRTQAELGLESLEKLVQEIMGLEKEQTKSLHDDIIKSIGDSYSI
notes: Nse3, Saccharomyces cerevisiae; the model holds amino acids 9-99, 114-152, 173-303; also called KITE subunit; source: recombinant, expressed in insect cells, purified as holo-complex (Superose 6 SEC), BS3-crosslinked
binds: all assays above
